One protein from patent US20070148669 can be followed below.

In data set [1] the target is T1, synthetic peptide Ac-SPLAQA-VRSSSR-NH2 (SEQ ID NO: 17) with the P′1 valine substituted by alanine.
T1 chain: SPLAQAARSSSR

Data set [2] has as its target T2, synthetic peptide Ac-SPLAQA-VRSSSR-NH2 (SEQ ID NO: 17) with the P′1 valine substituted by glycine.
T2 chain: SPLAQAGRSSSR

Data set [3] concerns the target T3, synthetic peptide Ac-SPLAQA-VRSSSR-NH2 (SEQ ID NO: 17) with the P′1 valine substituted by serine.
T3 chain: SPLAQASRSSSR

B1: tumor necrosis factor-alpha converting enzyme (TACE) catalytic domain (protein)
chain: RADPDPMKNTCKLLVVADHRFYRYMGRGEESTTTNYLIELIDRVDDIYRNTAWDNAGFKGYGIQIEQIRILKSPQEVKPGEKHYNMAKSYPNEEKDAWDVKMLLEQFSFDIAEEASKVCLAHLFTYQDFDMGTLGLAYVGSPRANSHGGVCPKAYYSPVGKKNIYLNSGLTSTKNYGKTILTKEADLVTTHELGHNFGAEHDPDGLAECAPNEDQGGKYVMYPIAVSGDHENNKMFSQCSKQSIYKTIESKAQECFQERSNKVGSHHHHHH
As to B1, the “catalytic activity of TACE (product formation quantified at 214 nm after HPLC separation; 100 nM TACE, 100 micromolar substrate)” value in data set [1], in data set [2] and in data set [3] was “decreased activity of TACE to non-detectable levels” throughout.
